# Measurements: the supplement of paper PMC10724198
# ± gives the standard deviation of the averaged measurements.
# Tested on: Saccharomyces cerevisiae
# Test: protein stability index of tFT-peptide fusion (C-terminal peptide) (PSI (0-1 scale)); higher = more stable (slower turnover)
# Conditions: genetic background: wild type; temperature: 30 C
# 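Further: PSI is a weighted mean of sequencing reads over stability bins, variants kept only with over 10 reads, mCherry proximal and sfGFP distal, peptide attached via GGGS linker.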
row,Sequence,protein stability index
1,SLRLFIHTIFSR,0.695 ± 0.061
2,NMLYRKEGWTKE,0.655 ± 0.036
3,GGGGGGACRPVG,0.659 ± 0.094
4,RTGKVKNINISI,0.71064 ± 0.00038
5,LPHCPLNVFPLV,0.654 ± 0.034
6,LAVGAAGVLFGG,0.776 ± 0.03
7,SLIACQGPIPCG,0.648 ± 0.038
8,GGFLATAGLSVT,0.673 ± 0.056
9,PTRPAMILPNRY,0.698 ± 0.049
10,PPSRLSPPPPPS,0.71 ± 0.016
11,TPPTHPPPLPPL,0.752 ± 0.11
12,PVDGGAGPEVKG,0.641 ± 0.1
13,KKKKKQRMKRNG,0.674 ± 0.049
14,CQSARCLPFLLY,0.585 ± 0.026
15,LPAPLGPRIPSL,0.753 ± 0.15
16,GGGGSGRRIGCR,0.696 ± 0.035
17,KGHMYEFRKGVR,0.68 ± 0.011
18,VCGPCVESLETR,0.689 ± 0.059
19,KRKKNTRENGED,0.778 ± 0.022
20,LPRPTRLRTTPA,0.685 ± 0.044
21,RNWCHGTVLNRL,0.736 ± 0.13
22,YGAGLRIGQFRC,0.747 ± 0.1
23,QEKSLSHTQRYR,0.762 ± 0.072
24,AGHACGSLRGHP,0.682 ± 0.034
25,GFEWWCQSVSVG,0.688 ± 0.018
26,SPPPPRLPSPTP,0.744 ± 0.054

row,Sequence,protein stability index
1,RLWFPSARLRFT,0.678 ± 0.06
2,PPPATNSLPGFE,0.672 ± 0.0099
3,DHRELPRSRIGT,0.673 ± 0.015
4,VGDGQGGGGQGG,0.661 ± 0.022
5,AKWGGDGCGARM,0.764 ± 0.082
6,WGGWGLRVSCGT,0.681 ± 0.052
7,RNIQKLNKIKKK,0.753 ± 0.15
8,RLPRSPPLPSCR,0.726 ± 0.016
9,KRGNGIEGRVGG,0.685 ± 0.011
10,PPPPPPPFCLAP,0.718 ± 0.0079
11,GGRGRGMGGIFG,0.667 ± 0.053
12,HSSLHLTRALCL,0.677 ± 0.043
13,PLVAGRVIVTLR,0.554 ± 0.011
14,PEEPSANWTGFF,0.598 ± 0.033
15,VVVRRSEVGGRV,0.65 ± 0.095
16,LGFLRRERLVPS,0.697 ± 0.057
17,QVLFTPLLNVTK,0.754 ± 0.05
18,VPAALAGADCSP,0.763 ± 0.085
19,FTGAVGPCTCRY,0.731 ± 0.023
20,VGCSVGHFQRLF,0.677 ± 0.017
21,QVTLPHSSLLGW,0.6749 ± 0.0028
22,PGDVSFALARNG,0.624 ± 0.074
23,TSPPPPIPLPPR,0.695 ± 0.032
24,SEVISMSDDLGR,0.633 ± 0.087
25,SFCCISSFPCWR,0.751 ± 0.016
26,PALPPPAPLPLS,0.67261 ± 0.00022

row,Sequence,protein stability index
1,SSLVAFPPLPAP,0.731 ± 0.024
2,PPPPPPPLPHPP,0.595 ± 0.058
3,FWVASREVGRAY,0.608 ± 0.041
4,PAPCAPLLTHRP,0.6614 ± 0.0025
5,LLFLVHGLCFSS,0.543 ± 0.028
6,DYHWPFIRTATE,0.774 ± 0.027
7,IALTSVRIPSSP,0.678 ± 0.047
8,TSGAKKISSGTQ,0.707 ± 0.036
9,PFPPPSTPASLY,0.772 ± 0.11
10,PRPPPSPTPPLT,0.69 ± 0.095
11,VPRPLPPSPLLV,0.644 ± 0.13
12,SSGRHCLPCANV,0.64 ± 0.017
13,DRASLAGPRSLP,0.692 ± 0.032
14,SFDFRKGDPTSD,0.667 ± 0.02
15,GLRLFAPRWPQA,0.713 ± 0.058
16,EKKIDPTVKEGK,0.663 ± 0.0094
17,PPRTSPRLLPPP,0.686 ± 0.0069
18,VSLGRRGDRGLC,0.719 ± 0.031
19,PSPPPPPRTFPN,0.6756 ± 0.0064
20,MDHSGYWDISCG,0.801 ± 0.099
21,VWDGLAVAATCS,0.597 ± 0.085
22,VAESCVIVFWLG,0.506 ± 0.0056
23,ALAPCLPESIGN,0.676 ± 0.057
24,CKCKLNKKTTKS,0.701 ± 0.05
25,GGVGRGADASLA,0.622 ± 0.017
26,FLSHRMNMSGLA,0.658 ± 0.016

row,Sequence,protein stability index
1,PFPRPAFPPYFP,0.746 ± 0.047
2,PLEPDFLIGGNA,0.807 ± 0.16
3,AVWLEAVSVSLS,0.612 ± 0.012
4,SLLAPPALTAPS,0.674 ± 0.05
5,PPLSLRPDLPVF,0.649 ± 0.0098
6,ICVYGGRKISPG,0.6877 ± 0.00097
7,PLSPNIHQRPPA,0.75 ± 0.0096
8,HNSRTVPISVSV,0.528 ± 0.038
9,RKEEKKEGKGTR,0.663 ± 0.062
10,WAAWGGGEAWGV,0.698 ± 0.047
11,NCSPLCLRVASS,0.647 ± 0.029
12,RMIQKFGLGVVV,0.5613 ± 0.0047
13,YKNDNDKCIQMR,0.678 ± 0.011
14,PLPPPLPLSSPP,0.67 ± 0.012
15,LPRPHARPPLSS,0.583 ± 0.066
16,CFPALSSRTFPS,0.7521 ± 0.0047
17,SAFLSFPFLSPF,0.705 ± 0.011
18,PSPRPPPPPPSA,0.705 ± 0.009
19,PAPPSPPPHSSP,0.751 ± 0.063
20,PGTLPDDLASTR,0.673 ± 0.034
21,LSSRVYDCTRQG,0.675 ± 0.045
22,TPPPPLVPPLPP,0.578 ± 0.017
23,PSTPPGPPPASH,0.758 ± 0.011
